B1: H2-Kb / B14 (parent)
chain 1: GEQVEQRPPHLSVREGDSAVIICTYTDPNSYYFFWYKQEPGAGLQLLMKVFSSTEINEGQGFTVLLNKKDKQLSLNLTAAHPGDSAVYFCAVSARGNMGYKLTFGTGTSLLVDP
chain 2: GGIITQTPKFLIGQEGQKLTLKCQQNFNHDTMYWYRQDSGKGLRLIYYSITENDLQKGDLSEGYDASREKKSSFSLTVTSAQKNEMAVFLCASSMGQGASDYTFGSGTRLLVI
chain 3: not shown
chain 4: IQKTPQIQVYSRHPPENGKPNILNCYVTQFHPPHIEIQMLKNGKKIPKVEMSDMSFSKDWSFYILAHTEFTPTETDTYACRVKHDSMAEPKTVYWDRDM
chain 5: SIINFEKL
B2: H2-Kb / E9 (parent)
chain 1: QQKVQQSPESLTVSEGAMASLNCTFSDRSSDNFRWYRQHSGKGLEVLVSIFSDGEKEEGSFTAHLNRASLHVFLHIREPQPSDSALYLCAVSRSSGSWQLIFGSGTQLTVMP
chain 2: NSGVVQSPRYIIKGKGERSILKCIPISGHLSVAWYQQTQGQELKFFIQHYDKMERDKGNLPSRFSVQQFDDYHSEMNMSALELEDSAVYFCASSRDSNNQAPLFGEGTRLSVL
chain 3: not shown
chain 4: B1 chain 4
chain 5: SIINFEKL

Variants of: B1
Test: % of reporter cells activated (NFAT-GFP), raw
Settings: with B14; scale: % of reporter cells activated
Also: test concentration or dose not given here.

Variant	ratio to parent
chain 5 S1L	1.13
chain 5 S1W	1.04
chain 5 S1F	3.07
chain 5 S1P	0.751
chain 5 N4I	0.484
chain 5 N4Y	0.658
chain 5 N4H	0.911
chain 5 N4T	1.64
chain 5 N4W	1.01
chain 5 N4K	1.37
chain 5 N4Q	1.07
chain 5 N4R	1.32
chain 5 N4V	1.42
chain 5 N4L	0.822
chain 5 N4S	1.1
chain 5 N4P	1.38
chain 5 N4M	0.498

Variants of: B2
Test: % of reporter cells activated (NFAT-GFP), raw
Settings: with E9; scale: % of reporter cells activated

Variant	ratio to parent
chain 5 E6G	1.74
chain 5 E6F	1.68
chain 5 E6V	3.26
chain 5 E6D	1.68
chain 5 E6L	1.35
chain 5 E6I	2.63
chain 5 E6W	2.07
chain 5 E6A	2.25
chain 5 E6R	2.34
chain 5 E6P	2.1
chain 5 E6K	1.98
chain 5 E6S	2.46
chain 5 E6T	2.1
chain 5 E6C	0.862
chain 5 E6H	1.47
chain 5 E6N	1.47
chain 5 E6M	1.86
chain 5 E6Y	2.84
chain 5 E6Q	1.47
chain 5 I3P	1.68
chain 5 I3K	2.31
chain 5 I3V	1.23
chain 5 I3H	1.53
chain 5 I3L	2.07
chain 5 I3Q	1.83

Variant	ratio to parent
chain 5 I3N	0.778
chain 5 I3W	1.74
chain 5 I3C	1.65
chain 5 I3M	1.17
chain 5 I3Y	2.43
chain 5 I3E	1.86
chain 5 I3R	1.89
chain 5 I3F	1.26
chain 5 I3S	2.13
chain 5 I3G	1.62
chain 5 I3A	1.71
chain 5 I3T	1.68
chain 5 I3D	1.41
chain 5 N4Q	1.38
chain 5 N4D	1.11
chain 5 N4R	1.59
chain 5 N4S	1.89
chain 5 N4P	2.07
chain 5 N4F	1.38
chain 5 N4M	1.71
chain 5 N4V	2.04
chain 5 N4W	1.77
chain 5 N4L	2.31
chain 5 N4K	2.4
chain 5 N4G	1.35

Variant	ratio to parent
chain 5 N4C	2.34
chain 5 N4H	2.63
chain 5 N4Y	1.15
chain 5 N4E	1.68
chain 5 N4A	2.22
chain 5 N4T	1.47
chain 5 K7M	1.02
chain 5 K7Q	2.28
chain 5 K7H	2.43
chain 5 K7I	2.54
chain 5 K7L	2.01
chain 5 K7P	2.07
chain 5 K7S	1.41
chain 5 K7G	1.92
chain 5 K7R	0.237
chain 5 K7N	1.95
chain 5 K7T	2.01
chain 5 K7C	3.02
chain 5 K7F	0.958
chain 5 K7Y	1.26
chain 5 K7A	0.686
chain 5 K7W	1.38
chain 5 K7E	2.1
chain 5 K7V	1.71
chain 5 K7D	1.53

Variant	ratio to parent
chain 5 S1K	1.23
chain 5 S1D	1.29
chain 5 S1R	0.719
chain 5 S1A	3.05
chain 5 S1M	1.5
chain 5 S1W	1.2
chain 5 S1N	1.32
chain 5 S1Y	1.2
chain 5 S1C	3.08
chain 5 S1P	1.23
chain 5 S1I	2.49
chain 5 S1E	2.1
chain 5 S1L	2.01
chain 5 S1G	2.1
chain 5 S1Q	1.16
chain 5 S1F	2.34
chain 5 S1V	1.86
chain 5 S1T	1.35
chain 5 S1H	2.01
chain 5 I2S	1.46
chain 5 I2R	1.06
chain 5 I2A	2.22
chain 5 I2T	2.01
chain 5 I2Y	1.53
chain 5 I2E	2.07

Variant	ratio to parent
chain 5 I2C	2.31
chain 5 I2N	1.77
chain 5 I2L	1.5
chain 5 I2M	1.59
chain 5 I2F	1.02
chain 5 I2K	1.2
chain 5 I2Q	1.77
chain 5 I2G	1.32
chain 5 I2W	1.86
chain 5 I2V	2.13
chain 5 I2P	1.77
chain 5 I2D	2.31
chain 5 F5G	1.74
chain 5 F5A	1.68
chain 5 F5E	2.43
chain 5 F5L	1.98
chain 5 F5Q	1.32
chain 5 F5I	1.02
chain 5 F5W	1.14
chain 5 F5R	0.671
chain 5 F5S	1.83
chain 5 F5C	1.95
chain 5 F5H	1.89
chain 5 F5P	2.51
chain 5 F5T	1.45

Variant	ratio to parent
chain 5 F5M	1.74
chain 5 F5Y	2.37
chain 5 F5K	2.54
chain 5 F5D	3.05
chain 5 F5N	2.01
chain 5 F5V	1.89
chain 5 L8W	0.778
chain 5 L8V	0.302
chain 5 L8T	0.623
chain 5 L8P	1.35
chain 5 L8N	0.838
chain 5 L8H	1.92
chain 5 L8Q	0.898
chain 5 L8R	1.53
chain 5 L8M	0.988
chain 5 L8E	1.26
chain 5 L8Y	1.2
chain 5 L8A	0.868
chain 5 L8F	1.77
chain 5 L8G	1.25
chain 5 L8S	0.886
chain 5 L8I	0.988
chain 5 L8D	0.605
chain 5 L8C	2.78
chain 5 L8K	1.14

From article PMC11480844
